Data: patent US20230257470A1 (published 2023)

Legend:
human FcγRIa [1] = target: T1, human FcγRIa (human, UniProt P12314 16-292, limits assumed); assay: SPR (Biacore), antibody captured on chip, FcgR injected, HBS-EP+, 25 C; bound amount corrected by captured amount; reference itself
T1 construct: also called hFcgRIa
T1 sequence (P12314 16-292 limits assumed): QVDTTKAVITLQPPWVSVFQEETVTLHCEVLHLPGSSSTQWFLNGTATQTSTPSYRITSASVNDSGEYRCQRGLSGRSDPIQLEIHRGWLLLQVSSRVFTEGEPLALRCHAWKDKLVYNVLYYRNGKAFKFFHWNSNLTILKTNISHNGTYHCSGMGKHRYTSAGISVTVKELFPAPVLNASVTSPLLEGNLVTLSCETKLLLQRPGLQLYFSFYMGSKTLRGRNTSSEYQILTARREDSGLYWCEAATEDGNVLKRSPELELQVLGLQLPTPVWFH

human FcγRIIa(R) = target: T2, human FcγRIIa(R) (human, UniProt P12318 36-217); assay: as above
T2 construct: also called hFcgRIIa(R); FcγRIIa type R
T2 chain: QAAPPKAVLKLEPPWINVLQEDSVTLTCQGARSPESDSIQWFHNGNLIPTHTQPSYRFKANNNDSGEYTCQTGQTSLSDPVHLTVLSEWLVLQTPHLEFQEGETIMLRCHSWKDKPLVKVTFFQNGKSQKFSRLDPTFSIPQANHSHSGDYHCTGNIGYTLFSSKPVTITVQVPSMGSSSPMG

human FcγRIIa(H) = target: T3, human FcγRIIa(H) (human, UniProt P12318 36-217); assay: as above
T3 construct: also called hFcgRIIa(H); FcγRIIa type H
T3 sequence: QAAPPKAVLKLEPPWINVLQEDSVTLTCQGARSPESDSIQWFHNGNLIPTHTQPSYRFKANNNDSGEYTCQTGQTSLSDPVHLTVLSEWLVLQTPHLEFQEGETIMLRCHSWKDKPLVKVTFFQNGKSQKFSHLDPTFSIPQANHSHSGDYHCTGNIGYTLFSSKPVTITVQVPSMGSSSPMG

human FcγRIIb [2] = target: T4, human FcγRIIb (human, UniProt P31994 43-217, limits assumed); assay: as above
T4 construct: also called hFcgRIIb
T4 sequence: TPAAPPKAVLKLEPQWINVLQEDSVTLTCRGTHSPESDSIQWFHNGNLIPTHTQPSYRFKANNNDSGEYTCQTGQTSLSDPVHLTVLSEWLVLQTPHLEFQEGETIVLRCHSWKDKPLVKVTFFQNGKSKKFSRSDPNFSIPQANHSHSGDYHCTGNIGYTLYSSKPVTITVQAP

human FcγRIIIa(F) [3] = target: T5, human FcγRIIIa(F) (human, UniProt P08637 17-208, limits assumed); assay: as above
T5 construct: also called hFcgRIIIa(F); allotype F158
T5 sequence (P08637 other isoform, or with tags, fused parts or gaps limits assumed): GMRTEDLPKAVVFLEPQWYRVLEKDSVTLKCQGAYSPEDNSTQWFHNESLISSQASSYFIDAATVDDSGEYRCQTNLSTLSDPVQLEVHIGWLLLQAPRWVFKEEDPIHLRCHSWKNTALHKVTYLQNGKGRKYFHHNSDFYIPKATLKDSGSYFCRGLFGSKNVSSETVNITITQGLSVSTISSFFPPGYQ

[4] = target: T6, human FcγRIIa(R) (allotype R131) (human, UniProt P12318 36-217); assay: SPR (Biacore T100), antibody captured by Protein L, FcγR as analyte, pH 7.4, 25 C
T6 construct: Soluble analyte in SPR; also called hFcgRIIa(R); FcgRIIaR
T6 chain: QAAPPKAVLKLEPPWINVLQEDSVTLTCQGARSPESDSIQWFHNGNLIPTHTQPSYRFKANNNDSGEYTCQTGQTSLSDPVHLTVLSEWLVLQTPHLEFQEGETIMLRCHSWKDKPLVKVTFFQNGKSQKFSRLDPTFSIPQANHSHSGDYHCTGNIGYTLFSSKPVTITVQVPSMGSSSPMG
Procedure: (§1) Interaction of these antibodies with FcγRIIa(R) and FcγRIIb was analyzed using the BIACORE™ T100 surface plasmon resonance system (GE Healthcare). Measurements were carried out at 25° C. using a buffer consisting of 20 mM N-(2-acetamido)-2-aminoethanesulfonic acid (ACES), 150 mM NaCl and 0.05% polysorbate 20 (Tween 20®) (pH 7.4) for the running buffer. The Series S Sensor Chip CM4 (GE Healthcare) was used after immobilizing Protein L by amine coupling. […] Antibody captured on the chip was washed by reacting with 10 mM glycine-HCl (pH 1.5) following measurement, and the chip regenerated in this manner was used repeatedly.
(§2) Measurement results were analyzed using the BIACORE™ Evaluation Software. Antibody was captured by Protein L, and the amount of change in a sensorgram before and after the antibody was captured was defined as X1. […]

human FcγRIIb [5] = target: T7, human FcγRIIb (human, UniProt P31994 43-217, limits assumed); assay: as above
T7 construct: Soluble analyte in SPR; also called hFcgRIIb; FcgRIIb
T7 sequence: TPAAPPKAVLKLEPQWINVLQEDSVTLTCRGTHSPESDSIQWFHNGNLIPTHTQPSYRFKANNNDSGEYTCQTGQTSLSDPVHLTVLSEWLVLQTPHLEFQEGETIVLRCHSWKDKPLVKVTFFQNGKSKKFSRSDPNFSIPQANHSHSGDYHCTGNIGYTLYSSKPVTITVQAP
Procedure: as §1, §2

human FcγRIa [6] = target: T8, human FcγRIa (human, UniProt P12314 16-292, limits assumed); assay: SPR (Biacore), antibody captured, FcγR as analyte, method of Example 14
T8 construct: also called CD64
T8 sequence (P12314 16-292 limits assumed): as the sequence (P12314 16-292 limits assumed) above
Procedure: (§3) Next, interaction between these antibodies and FcγR was analyzed kinetically using the BIACORE™ T100 (GE Healthcare). The interaction was measured at a temperature of 25° C. using HBS-EP+ (GE Healthcare) for the running buffer. The Series S Sensor Chip CM5 (GE Healthcare) was used after immobilizing Protein A by amine coupling. […] Antibody captured on the chip was washed by allowing 10 mM glycine-HCl (pH 1.5) to react following measurement. The chip regenerated in this manner was used repeatedly. The dissociation constant KD (mol/L) was calculated from the association rate constant ka (L/mol/s) and dissociation rate constant kd (1/s) as calculated by global-fitting the measurement results with a 1:1 Langmuir binding model using the BIACORE™ Evaluation Software.
(§4) Furthermore, KD(IIaR)/KD(IIb) and KD(IIaH)/KD(IIb) in the table respectively show the value obtained by dividing the KD value of each variant for FcγRIIaR by the KD value of each variant for FcγRIIb, and the value obtained by dividing the KD value of each variant for FcγRIIaH by the KD value of each variant for FcγRIIb.

human FcγRIIa type R = target: T9, human FcγRIIa type R (human, UniProt P12318 36-217); assay: as above
T9 construct: also called FcγRIIaR; FcγRIIa(R)
T9 chain: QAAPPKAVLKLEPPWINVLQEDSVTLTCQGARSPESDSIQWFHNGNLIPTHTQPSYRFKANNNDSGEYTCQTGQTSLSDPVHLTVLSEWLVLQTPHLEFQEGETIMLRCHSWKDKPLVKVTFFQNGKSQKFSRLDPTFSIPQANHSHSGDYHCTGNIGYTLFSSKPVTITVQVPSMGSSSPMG
Procedure: as §3, §4

human FcγRIIb [7] = target: T10, human FcγRIIb (human, UniProt P31994 43-217); assay: as above
T10 construct: also called FcγRIIb extracellular region; FcγIIB
T10 sequence: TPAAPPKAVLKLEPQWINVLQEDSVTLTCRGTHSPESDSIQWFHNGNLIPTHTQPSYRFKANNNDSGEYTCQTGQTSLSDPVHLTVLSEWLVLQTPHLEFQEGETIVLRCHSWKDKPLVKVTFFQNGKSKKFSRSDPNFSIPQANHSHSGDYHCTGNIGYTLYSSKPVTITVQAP
Procedure: as §3, §4

human FcγRIIb [8] = target: T10, human FcγRIIb; assay: ratio of SPR KD values of the same variant: KD for FcγRIIaH / KD for FcγRIIb
Procedure: as §3, §4

human FcγRIIb [9] = target: T10, human FcγRIIb; assay: ratio of SPR KD values of the same variant: KD for FcγRIIaR / KD for FcγRIIb
Procedure: as §3, §4

human FcγRIIb [10] = target: T10, human FcγRIIb; assay: ratio of SPR KD values for FcγRIIb; reference: parent polypeptide IL6R-F11/IL6R-L
Procedure: as §3, §4

human FcγRIIIa(F) [11] = target: T5, human FcγRIIIa(F); assay: SPR (Biacore), antibody captured on Protein L, human FcgR injected, pH 7.4, 25 C; normalised to captured amount x 1500
Procedure: Binding activity between the antibodies and human FcγRIa, FcγRIIa(H), FcγRIIa(R), FcγRIIb and FcγRIIIa(F) (hereinafter referred to as human FcγRs) was evaluated using the BIACORE™ T100 or T200 surface plasmon resonance system (GE Healthcare). The antibodies being tested were captured by Protein L (ACTIGEN® protein (Alltech)) that was immobilized in suitable amounts on the CM4 Sensor Chip (GE Healthcare) by amine coupling. Next, the diluted human FcγRs and a running buffer used as a blank were injected to allow interaction with the antibodies captured on the sensor chip. A buffer consisting of 20 mmol/L N-(2-acetamido)-2-aminoethanesulfonic acid (ACES), 150 mmol/L NaCl and 0.05% (w/v) polysorbate 20 (Tween 20®) (pH 7.4) was used for the running buffer, and this buffer was also used to dilute the human FcγRs. 10 mmol/L glycine-HCl (pH 1.5) was used to regenerate the sensor chip. All measurements were carried out at 25° C.
Binding activity to human FcγRs can be represented by the relative binding activity to human FcγRs. Antibody was captured by Protein L, and the amount of change in a sensorgram before and after the antibody was captured was defined as X1. […]

B1: GpH7-G1d/GpL16-k0 (antibody)
chain 1: not shown
chain 2: DIVMTQSPLSLPVTPGEPASISCQASESLVHSNRNTYLHWYLQKPGQSPQLLIYKVSNRFSGVPDRFSGSGSGTDFTLKISRVEAEDVGVYYCSQNTHVPPTFGQGTKVEIERTVAAPSVFIFPPSDEQLKSGTASVVCLLNNFYPREAKVQWKVDNALQSGNSQESVTEQDSKDSTYSLSSTLTLSKADYEKHKVYACEVTHQGLSSPVTKSFNRGEC
Q: For B1, which “relative binding activity (amount bound / amount bound by GpH7-G1d/GpL16-k0 x 100)” value (human FcγRIa [1]) is on record?
A: 100

Q: What about the “relative binding activity (amount bound / amount bound by GpH7-G1d/GpL16-k0 x 100)” value (human FcγRIIa(R)) of the same binder?
A: 100

Q: What about the “relative binding activity (amount bound / amount bound by GpH7-G1d/GpL16-k0 x 100)” value (human FcγRIIa(H)) of the same binder?
A: 100

Q: And the “relative binding activity (amount bound / amount bound by GpH7-G1d/GpL16-k0 x 100)” value (human FcγRIIb [2])?
A: 100

Q: What about the “relative binding activity (amount bound / amount bound by GpH7-G1d/GpL16-k0 x 100)” value (human FcγRIIIa(F) [3]) of the same binder?
A: 100

B2: antibody containing VH3-IgG1-F652 for the heavy chain and L(WT)-CK for the light chain (antibody)
heavy: QVQLQESGPGLVKPSETLSLTCAVSGHSISHDHAWSWVRQPPGEGLEWIGFISYSGITNYNPSLQGRVTISRDNSKNTLYLQMNSLRAEDTAVYYCARSLARTTAMDYWGEGTLVTVSSASTKGPSVFPLAPSSKSTSGGTAALGCLVKDYFPEPVTVSWNSGALTSGVHTFPAVLQSSGLYSLSSVVTVPSSSLGTQTYICNVNHKPSNTKVDKKVEPKSCDKTHTCPPCPAPELLGGDSVFLFPPKPKDTLYISRTPEVTCVVVDVSHEDPEVKFNWYVDGVEVHNAKTKPREEQYNSTYRVVSVLTVLHQDWLNGKEYKCKVSNKALPAPIEKTISKAKGQPREPQVYTLPPSRDELTKNQVSLTCLVKGFYPSDIAVEWESNGQPENNYKTTPPVLDSDGSFFLYSKLTVDKSRWQQGNVFSCSVMHEALHYHYTQKSLSLSP
light: not shown
notes: VH3-IgG1-F11 with P238D (EU numbering)
Q: With B2 as the binder, how does the “BINDING AMOUNT (RU)” value [4] read?
A: 9.1 RU

Q: What about the “BINDING AMOUNT (RU)” value (human FcγRIIb [5]) of the same binder?
A: 64 RU

B3: IL6R-PD080/IL6R-L (antibody)
heavy: QVQLQESGPGLVKPSETLSLTCAVSGHSISHDHAWSWVRQPPGEGLEWIGFISYSGITNYNPSLQGRVTISRDNSKNTLYLQMNSLRAEDTAVYYCARSLARTTAMDYWGEGTLVTVSSASTKGPSVFPLAPSSKSTSGGTAALGCLVKDYFPEPVTVSWNSGALTSGVHTFPAVLQSSGLYSLSSVVTVPSSSLGTQTYICNVNHKPSNTKVDKKVEPKSCDKTHTCPPCPAPELLGDDSVFLFPPKPKDTLYISRTPEVTCVVVDVSHEDPEVKFNWYVDGVEVHNAKTKPREEQYNSTYRVVSVLTVLHQDWLNGKEYKCKVSNKALPAPIEKTISKAKGQPREPQVYTLPPSRDELTKNQVSLTCLVKGFYPSDIAVEWESNGQPENNYKTTPPVLDSDGSFFLYSKLTVDKSRWQQGNVFSCSVMHEALHYHYTQKSLSLSP
light: DIQMTQSPSSLSASVGDRVTITCRASQDISSYLNWYQQKPGKAPKLLIYYTSRLHSGVPSRFSGSGSGTDFTFTISSLQPEDIATYYCQQGNTLPYTFGQGTKVEIK
notes: Alteration is counted against IL6R-F11; also called G237D/P238D; P238D/G237D
Q: B3 was tested. Which Kd (human FcγRIa [6]) did it give?
A: 140 nM

Q: What about the Kd (human FcγRIIa type R) of the same binder?
A: 21000 nM

Q: And the Kd (human FcγRIIb [7])?
A: 2000 nM

Q: What about the “KD(IIaH)/KD(IIb)” value (human FcγRIIb [8]) of the same binder?
A: 12.8

Q: What about the “KD(IIaR)/KD(IIb)” value (human FcγRIIb [9]) of the same binder?
A: 10.7

Q: What about the “KD(IIb) of parent polypeptide/KD(IIb) of altered polypeptide” value (human FcγRIIb [10]) of the same binder?
A: 3.5

B4: antibody containing VH3-IgG1-F1356 for the heavy chain and L(WT)-CK for the light chain (antibody)
heavy: QVQLQESGPGLVKPSETLSLTCAVSGHSISHDHAWSWVRQPPGEGLEWIGFISYSGITNYNPSLQGRVTISRDNSKNTLYLQMNSLRAEDTAVYYCARSLARTTAMDYWGEGTLVTVSSASTKGPSVFPLAPSSKSTSGGTAALGCLVKDYFPEPVTVSWNSGALTSGVHTFPAVLQSSGLYSLSSVVTVPSSSLGTQTYICNVNHKPSNTKVDKKVEPKSCDKTHTCPPCPAPELLRGPSVFLFPPKPKDTLYISRTPEVTCVVVDVSHEDPEVKFNWYVDGVEVHNAKTKPREEQYNSTYRVVSVLTVLHQDWLNGKEYKCKVSNKARPAPIEKTISKAKGQPREPQVYTLPPSRDELTKNQVSLTCLVKGFYPSDIAVEWESNGQPENNYKTTPPVLDSDGSFFLYSKLTVDKSRWQQGNVFSCSVMHEALHYHVTQKSLSLSP
light: not shown
Q: How did the “BINDING AMOUNT (RU)” value (human FcγRIIIa(F) [11]) turn out when B4 was run?
A: 4.09 RU
